Results published in article PMC4298681 (The Journal of Cell Biology, 2015).

Biological target: native Arp2/3 complex purified from Acanthamoeba castellanii (Acanthamoeba castellanii, UniProt P53487 1-388)
Assay: pull-down

Kd: ~213 nM
B1: GST-NIK 340–500 (domain or fragment)
chain: SSIVNVPGESTLRRDFLRLQQENKERSEALRRQQLLQEQQLREQEEYKRQLLAERQKRIEQQKEQRRRLEEQQRREREARRQQEREQRRREQEEKRRLEELERRRKEEEERRRAEEEKRRVEREQEYIRRQLEEEQRHLEILQQQLLQEQAMLLHDHRRPH
